Results as given in patent US20250367288A1, “DELIVERY OF MULTI-CYTOKINE SIGNALS BY OVEREXPRESSION OF WILD-TYPE OR MUTANT SIGNAL TRANSDUCTION MOLECULES” (THE TRUSTEES OF THE UNIVERSITY OF PENNSYLVANIA, priority 2021, published 2025).

How the values were obtained:
[1] = system: T cells expressing the truncated NGFR; assay: Stimulation of negative control T cells expressing truncated NGFR for 7 days; flow cytometry; assay type: cell-based, human; conditions: 0.1 μg/ml
Method: (§1) FIG. 12: T cells transduced to express (i) the thrombopoietin receptor (TPOR) or (ii) the GCF receptor with a deletion at aa 715 (GCSFRd715) are active and can drive T cell proliferation via the non-canonical JAK2 pathway. T cells expressing GCSFRd715, TPOR, or the truncated NGFR as a control were stimulated for 7 days with IL-2/IL-7/IL-15 (all at 5 ng/ml; denoted as CK; positive control condition), 0.1 μg/ml recombinant thrombopoietin (TPO), 0.1 μg/ml TPO agonist eltrombopag (EP), or 0.1 μg/ml GCSF. Cell number (top) or percent transgenic cells (bottom) were quantified using flow cytometry at 7 days.
(§2) Healthy donor T cells were transduced to express (i) the thrombopoietin receptor (TPOR) or (ii) the GCF receptor with a deletion at aa 715 (GCSFRd715). T cells expressing GCSFRd715, TPOR, or the truncated NGFR as a control were stimulated for 7 days with IL-2/IL-7/IL-15 (all at 5 ng/ml; denoted as CK; positive control condition), 0.1 μg/ml recombinant thrombopoietin (TPO), 0.1 μg/ml TPO agonist eltrombopag (EP), or 0.1 μg/ml GCSF. Cell number (FIG. 12, top) or percent transgenic cells (FIG. 12, bottom) were quantified using flow cytometry at 7 days.

TPOR = assay: Phosphorylation of STAT3 and STAT5 in TPOR expressing T cells after 24 hours stimulation, flow cytometry; assay type: cell-based, human; conditions: 0.1 μg/ml
Method: (§3) FIG. 14: TPOR stimulation leads to activation of STAT3 and STAT5. Healthy donor T cells expressing TPOR or untransduced control T cells were stimulated for 24 hours with 5 ng/ml IL-2/IL-7/IL-15 (CK), 0.1 μg/ml TPO or 0.1 μg/ml Eltrombopag (EP). Following stimulation cells were fixed and the phosphorylation of STAT3 and STAT5 quantified using flow cytometry.
as §3, with “TPOR” for “FIG. 14: TPOR”, “stimulation led” for “stimulation leads”, “and STAT5 (FIG. 14).” for “and STAT5.”, “μg/ml TPO,” for “μg/ml TPO”

T cells expressing TPOR = assay: Stimulation of T cells expressing TPOR for 7 days; cell number and percent transgenic cells by flow cytometry; assay type: cell-based, human; conditions: 0.1 μg/ml; for TPOR fraction after addition of agonist: enriched from 12.9% without addition
Method: as §1
(§4) FIG. 13: Exemplary flow cytometry plots showing that exposure of transgenic cytokine receptor transduced cells to the cognate cytokine (i.e. GCSFRd715 to GCSF; TPOR to TPO or EP) leads to enrichment of CAR expressing cells at 7 days. Addition of GCSF enriched the GCSRFd715 transgenic cell fraction from 15.6% to 64.9% (top panel). Addition of TPO enriched the TPOR fraction from 12.9% to 82% and addition of EP enriched the TPOR fraction from 12.9% to 55.9% (bottom panel).
as §2

[2] = biological target: thrombopoietin receptor (TPOR) (UniProt P40238); assay: cell-based or functional assay
[3] = biological target: GCF receptor with a deletion at aa 715 (GCSFRd715) (UniProt Q99062); assay: cell-based or functional assay
[4] = system: T cells expressing GCSFRd715; assay: Stimulation of T cells expressing GCSFRd715 for 7 days; cell number and percent transgenic cells by flow cytometry; assay type: cell-based, human; conditions: 0.1 μg/ml
Method: as §1, §4
Healthy donor T cells were transduced to express (i) the thrombopoietin receptor (TPOR) or (ii) the GCF receptor with a deletion at aa 715 (GCSFRd715). […] Cell number (FIG. 12, top) or percent transgenic cells (FIG. 12, bottom) were quantified using flow cytometry at 7 days.

G-CSFR = assay: Enrichment of G-CSFR transgenic T cells upon administration of G-CSF; assay type: cell-based; conditions: primary human T cells expressing G-CSFR
Excerpt: FIG. 7: Strong and specific enrichment of transgenic cells upon administration of G-CSF.
Ectopic expression of a myeloid cytokine receptor (G-CSFR) can be used to modulate CAR-T proliferation, and these T cells could then be inhibited by JAK2 inhibitors (e.g., FDA-approved JAK2 inhibitors such as ruxolitinib and others) (FIG. 6). […] The G-CSF receptor can be further modified to mediate downstream signaling that is normally associated with the T cell activating cytokine IL2 (chimeric G-CSF receptor) (FIG. 8). A pTRPE construct was used for the overexpression of G-CSFR IL2Rβ/IL2RG cytokine receptor (FIG. 9). The HEK IL2 Blue reporter cell line receptor (www.invivogen.com/hek-blue-il2) was used for screening the synthetic cytokine.

Chain of UniProt Q99062 (Q99062 25-738 limits assumed, stated change not applied): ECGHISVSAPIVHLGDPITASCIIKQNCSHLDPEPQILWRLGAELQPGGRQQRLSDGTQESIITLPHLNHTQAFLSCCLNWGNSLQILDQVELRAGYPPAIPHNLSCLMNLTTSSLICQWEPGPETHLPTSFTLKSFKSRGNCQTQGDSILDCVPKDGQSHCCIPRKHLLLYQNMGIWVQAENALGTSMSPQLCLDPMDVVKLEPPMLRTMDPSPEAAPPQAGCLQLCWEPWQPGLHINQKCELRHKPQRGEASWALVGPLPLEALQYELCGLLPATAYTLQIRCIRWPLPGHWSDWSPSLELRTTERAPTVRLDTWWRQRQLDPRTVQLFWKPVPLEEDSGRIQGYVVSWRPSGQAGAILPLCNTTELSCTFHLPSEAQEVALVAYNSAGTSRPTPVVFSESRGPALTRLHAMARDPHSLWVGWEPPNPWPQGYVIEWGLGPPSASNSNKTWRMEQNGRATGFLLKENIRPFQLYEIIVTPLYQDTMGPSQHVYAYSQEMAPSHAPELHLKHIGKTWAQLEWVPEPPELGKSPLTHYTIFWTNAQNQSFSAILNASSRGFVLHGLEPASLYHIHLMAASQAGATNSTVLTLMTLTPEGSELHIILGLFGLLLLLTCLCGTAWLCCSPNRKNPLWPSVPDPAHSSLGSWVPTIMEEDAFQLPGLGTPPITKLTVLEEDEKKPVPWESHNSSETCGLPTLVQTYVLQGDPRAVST

Row | Molecule | Response of negative control cells (NGFR) to stimulation [1] | Response of TPOR cells to stimulation (cell number) (T cells expressing TPOR) | TPOR fraction after addition of agonist (T cells expressing TPOR) | other results
1 | TPO: recombinant thrombopoietin | did not respond | responded | 82% | STAT5 and STAT3 phosphorylation in TPOR expressing T cells (TPOR): leads to STAT5 and STAT3 phosphorylation
2 | recombinant thrombopoietin (TPO) (from UniProt P40225 22-353) (ligand) |  |  |  | percent transgenic cells by flow cytometry after 7 days [2]: 82%
3 | GCSF (from UniProt P09919 31-204) (ligand) |  |  |  | percent transgenic cells by flow cytometry after 7 days [3]: 64.9%
4 | CC1=NN(c2ccc(C)c(C)c2)C(=O)/C1=N\Nc1cccc(-c2cccc(C(=O)O)c2)c1O [EP, eltrombopag, reference compound] |  |  | 55.9% | 
5 | GCSF: cognate cytokine of the G-CSF receptor, used at 0.1 μg/ml (protein) TPLGPASSLPQSFLLKCLEQVRKIQGDGAALQEKLCATYKLCHPEELVLLGHSLGIPWAPLSSCPSQALQLAGCLSQLHSGLFLYQGLLQALEGISPELGPTLDTLQLDVADFATTIWQQMEELGMAPALQPTQGAMPAFASAFQRRAGGVLVASHLQSFLEVSYRVLRHLAQP | did not respond | not |  | Response of GCSFRd715 cells to stimulation (cell number) [4]: responded; GCSRFd715 transgenic cell fraction after addition of cytokine ([4]; enriched from 15.6% without addition): 64.9%; Enrichment of transgenic cells upon administration of G-CSF (G-CSFR): Strong enrichment
